The record followed here is paper PMC8494340, “Enhancers with cooperative Notch binding sites are more resistant to regulation by the Hairless co-repressor” (PLoS Genetics, 2020).

This assay concerns the target T1, Drosophila Su(H) (aa 98–523) (Drosophila, UniProt P28159 98-523).
T1 construct: Suppressor of Hairless, Su(H), Drosophila, residues 98-523; also called Suppressor of Hairless; CSL transcription factor
The experiment in a line: native gel or EMSA; purified proteins mixed with fluorescently labelled 2xCSL17 and 1xSPS15 DNA probes, room temperature 20 minutes; Su(H) 2.5 to 160 nM, 2 μM Hairless or NICD/Mam; the protein complexes are seen bound to the DNA probe; band intensities fitted to a 2-site equilibrium model. The note with it: both partners purified. (A gel shift assay detects complexes by their altered migration in electrophoresis.)

T1 sequence (P28159 98-523): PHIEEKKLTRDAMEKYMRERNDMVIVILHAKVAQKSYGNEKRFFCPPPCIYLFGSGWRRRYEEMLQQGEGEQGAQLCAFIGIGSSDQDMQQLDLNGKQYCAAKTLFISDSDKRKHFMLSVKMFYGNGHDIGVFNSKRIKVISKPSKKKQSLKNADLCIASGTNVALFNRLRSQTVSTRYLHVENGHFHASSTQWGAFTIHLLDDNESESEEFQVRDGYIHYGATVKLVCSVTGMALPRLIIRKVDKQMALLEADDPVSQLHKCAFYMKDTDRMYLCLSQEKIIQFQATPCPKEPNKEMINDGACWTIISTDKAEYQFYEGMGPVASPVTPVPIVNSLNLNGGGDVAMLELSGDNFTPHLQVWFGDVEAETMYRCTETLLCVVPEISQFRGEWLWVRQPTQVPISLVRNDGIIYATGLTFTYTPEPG

B1: Drosophila Notch intracellular domain, NICD (aa 1763–2142) (domain or fragment, UniProt P07207 1763-2142, looked up)
chain: VLSTQRKRAHGVTWFPEGFRAPAAVMSRRRRDPHGQEMRNLNKQVAMQSQGVGQPGAHWSDDESDMPLPKRQRSDPVSGVGLGNNGGYASDHTMVSEYEEADQRVWSQAHLDVVDVRAIMTPPAHQDGGKHDVDARGPCGLTPLMIAAVRGGGLDTGEDIENNEDSTAQVISDLLAQGAELNATMDKTGETSLHLAARFARADAAKRLLDAGADANCQDNTGRTPLHAAVAADAMGVFQILLRNRATNLNARMHDGTTPLILAARLAIEGMVEDLITADADINAADNSGKTALHWAAAVNNTEAVNILLMHHANRDAQDDKDETPLFLAAREGSYEACKALLDNFANREITDHMDRLPRDVASERLHHDIVRLLDEHVPR
notes: Notch, Drosophila, intracellular domain, residues 1763-2142
As to B1, the binding result is on record as “binds”.

B2: Drosophila Mastermind (aa 87–307) (domain or fragment, UniProt P21519 87-307, looked up)
chain: PYNANLGATGGIAGITGGNGAGGPTNPGAVPTAPGDTMPTKRMPVVDRLRRRMENYRRRQTDCVPRYEQAFNTVCEQQNQETTVLQKRFLESKNKRAAKKTDKKLPDPSQQHQQQQHQQQQQHQQHQQHQQAQTMLAGQLQSSVHVQQKFLKRPAEDVDNGPDSFEPPHKLPNNNNNSNSNNNNGNANANNGGNGSNTGNNTNNNGNSTNNNGGSNNNGSE
notes: Mastermind, Drosophila, residues 87-307; also called Mam; MAM
As to B2, the binding result was “binds”.
